Measured values taken from patent US20250339569A1 (3B PHARMACEUTICALS, published 2025).
Starred links: 1 amine or outer side, 2 acyl side, 3 side chain; linkers in the order of their positions; H or OH if unused. Positions of bridges follow the written chain, without caps; N, C: chain ends. Non-standard residues stand in square brackets, D forms with d. Groups on a side chain read outwards from the residue. Primed or numbered codes have the meaning given here. No end group written: not given here. *: point of attachment. DOTA = O=C(O)CN1CCN(CC(=O)O)CCN(CC(=O)*)CCN(CC(=O)O)CC1; Trp(5-Cl) = N[C@@H](Cc1c[nH]c2ccc(Cl)cc12)C(=O)O; dmo = (R)-dimethylornithine (D form); mXylylene = c1cc(C[*:1])cc(C[*:2])c1; Isovaleryl = CC(C)CC(=O)*; dPip = O=C(O)[C@H]1CCCCN1; AGLU′ = not defined here; Ac6c = NC1(C(=O)O)CCCCC1; dNMeA = CN[C@H](C)C(=O)O; 4Amc = not defined here; APAc = not defined here; Apr = not defined here; AEEA = NCCOCCOCC(=O)O; Sar = CNCC(=O)O

Legend:
[1] = target: T1, Fc-fusion protein of human carbonic anhydrase IX (human, UniProt Q16790 38-414); test: SPR, captured hCAIX-Fc; pKD category A: >8.0
Method: (§1) Stock solutions of test compounds were prepared by dissolving each compound in DMSO. DMSO stock solution were diluted 1:1000 in Running Buffer without DMSO. […] SPR binding analyses were performed in Single Cycle Kinetic (SCK) mode at 25° C.
(§2) For each test compound, SPR raw data in the form of resonance units (RU) were plotted as sensorgrams using the Biacore™ T200 control software. The signal from the blank sensorgram was subtracted from that of the test compound sensorgram (blank corrected). The blank corrected sensorgram was corrected for baseline drift by subtracting the sensorgram of a SCK run without the test compound (running buffer only). […] Raw data and fit results were imported as text files in IDBS. The pKD value (negative decadic logarithm of dissociation constant) was calculated in the IDBS excel template.

[2] = target: T1, Fc-fusion protein of human carbonic …; test: SPR, captured hCAIX-Fc; t1/2 category B: 5.1-15.0 min
Method: as §1, §2

Row | pKD [1] [pkd] | t1/2 (half-life of the complex, SPR) [2] [min] | Binder
1 | > 8 | 5.1 to 15 | {DOTA-4Amc}-YCE[dP]DWLTWSC-NH2 (linker 2-11 via mXylylene; reading uncertain) [3BP-3868]
2 | > 8 | 5.1 to 15 | Ac-VYCE[Sar]D[Trp(5-Cl)]LTWQC-NH2 (linker 3-12 via mXylylene; SMILES CC(=O)N[C@H](C(=O)N[C@@H](Cc1ccc(O)cc1)C(=O)N[C@H]1CSCc2cccc(c2)CSC[C@@H](C(N)=O)NC(=O)[C@H](CCC(N)=O)NC(=O)[C@H](Cc2c[nH]c3ccccc23)NC(=O)[C@H]([C@@H](C)O)NC(=O)[C@H](CC(C)C)NC(=O)[C@H](Cc2c[nH]c3ccc(Cl)cc23)NC(=O)[C@H](CC(=O)O)NC(=O)CN(C)C(=O)[C@H](CCC(=O)O)NC1=O)C(C)C) [3BP-3289]
3 | > 8 | 5.1 to 15 | Ac-VYCE[dA]DWLTWAC-NH2 (linker 3-12 via mXylylene; SMILES CC(=O)N[C@H](C(=O)N[C@@H](Cc1ccc(O)cc1)C(=O)N[C@H]1CSCc2cccc(c2)CSC[C@@H](C(N)=O)NC(=O)[C@H](C)NC(=O)[C@H](Cc2c[nH]c3ccccc23)NC(=O)[C@H]([C@@H](C)O)NC(=O)[C@H](CC(C)C)NC(=O)[C@H](Cc2c[nH]c3ccccc23)NC(=O)[C@H](CC(=O)O)NC(=O)[C@@H](C)NC(=O)[C@H](CCC(=O)O)NC1=O)C(C)C) [3BP-3280]
4 | > 8 | 5.1 to 15 | Ac-VFCE[dP]DWLTWE([Apr-DOTA])C-NH2 (linker 3-12 via mXylylene; reading uncertain) [3BP-3874]
5 | > 8 | 5.1 to 15 | {DOTA-APAc}-VYCQ[dP]DWLTWSC-NH2 (linker 3-12 via mXylylene; reading uncertain) [3BP-4104]
6 | > 8 | 5.1 to 15 | {DOTA-APAc}-VYCE[dP]DWLTWRC-NH2 (linker 3-12 via mXylylene; reading uncertain) [3BP-3599]
7 | > 8 | 5.1 to 15 | {DOTA-APAc}-VYCE[dE](AGLU′)DWLTWSC-NH2 (linker 3-12 via mXylylene; reading uncertain) [3BP-4119]
8 | > 8 | 5.1 to 15 | {DOTA-APAc}-VE(AGLU′)CE[dP]DWLTWSC-NH2 (linker 3-12 via mXylylene; reading uncertain) [3BP-4112]
9 | > 8 | 5.1 to 15 | Ac-SYCE[dP]DWLTWE([Apr-DOTA])C-NH2 (linker 3-12 via mXylylene; reading uncertain) [3BP-3873]
10 | > 8 | 5.1 to 15 | Ac-VRCE[dP]DWLTWE([Apr-AEEA-DOTA])C-NH2 (linker 3-12 via 3MeBn; reading uncertain) [3BP-3734]
11 | > 8 | 5.1 to 15 | {DOTA-APAc}-VYCE[dmo]DWLTWSC-NH2 (linker 3-12 via mXylylene; reading uncertain) [3BP-4097]
12 | > 8 | 5.1 to 15 | Isovaleryl-YCE[dP]DWLTWE([Apr-AEEA-DOTA])C-NH2 (linker 2-11 via 3MeBn; reading uncertain) [3BP-3740]

Second part, the binder before the results:

Row | Binder | pKD [1] [pkd] | t1/2 (half-life of the complex, SPR) [2] [min]
13 | Ac-K(DOTA)VYCE[dP]DWLTWSC-NH2 (linker 4-13 via 3MeBn) [3BP-3840] | > 8 | 5.1 to 15
14 | Ac-VYCE[dPip]DWLTWAC-NH2 (linker 3-12 via mXylylene; SMILES CC(=O)N[C@H](C(=O)N[C@@H](Cc1ccc(O)cc1)C(=O)N[C@H]1CSCc2cccc(c2)CSC[C@@H](C(N)=O)NC(=O)[C@H](C)NC(=O)[C@H](Cc2c[nH]c3ccccc23)NC(=O)[C@H]([C@@H](C)O)NC(=O)[C@H](CC(C)C)NC(=O)[C@H](Cc2c[nH]c3ccccc23)NC(=O)[C@H](CC(=O)O)NC(=O)[C@H]2CCCCN2C(=O)[C@H](CCC(=O)O)NC1=O)C(C)C) [3BP-3283] | > 8 | 5.1 to 15
15 | {DOTA-APAc}-VYCE[dP]DW[Ac6c]TWSC-NH2 (linker 3-12 via mXylylene; reading uncertain) [3BP-3584] | > 8 | 5.1 to 15
16 | VYCEGDWLTWQC-NH2 (linker 3-12 via mXylylene; not fully specified (N-terminus); also: indium complexed by DOTA) [3BP-3328] | > 8 | 5.1 to 15
17 | {DOTA-APAc}-VSCE[dP]DWLTWSC-NH2 (linker 3-12 via mXylylene; reading uncertain) [3BP-4105] | > 8 | 5.1 to 15
18 | Ac-SYCE[dP]DWLTWE([Apr-AEEA-DOTA])C-NH2 (linker 3-12 via 3MeBn; reading uncertain) [3BP-3732] | > 8 | 5.1 to 15
19 | Ac-VYCE[dNMeA]DWLTWAC-NH2 (linker 3-12 via mXylylene; SMILES CC(=O)N[C@H](C(=O)N[C@@H](Cc1ccc(O)cc1)C(=O)N[C@H]1CSCc2cccc(c2)CSC[C@@H](C(N)=O)NC(=O)[C@H](C)NC(=O)[C@H](Cc2c[nH]c3ccccc23)NC(=O)[C@H]([C@@H](C)O)NC(=O)[C@H](CC(C)C)NC(=O)[C@H](Cc2c[nH]c3ccccc23)NC(=O)[C@H](CC(=O)O)NC(=O)[C@@H](C)N(C)C(=O)[C@H](CCC(=O)O)NC1=O)C(C)C) [3BP-3281] | > 8 | 5.1 to 15
20 | {DOTA}-YCE[dP]DWLTWSC-NH2 (linker 2-11 via mXylylene; SMILES CC(C)C[C@@H]1NC(=O)[C@H](Cc2c[nH]c3ccccc23)NC(=O)[C@H](CC(=O)O)NC(=O)[C@H]2CCCN2C(=O)[C@H](CCC(=O)O)NC(=O)[C@@H](NC(=O)[C@H](Cc2ccc(O)cc2)NC(=O)CN2CCN(CC(=O)O)CCN(CC(=O)O)CCN(CC(=O)O)CC2)CSCc2cccc(c2)CSC[C@@H](C(N)=O)NC(=O)[C@H](CO)NC(=O)[C@H](Cc2c[nH]c3ccccc23)NC(=O)[C@H]([C@@H](C)O)NC1=O) [3BP-3859] | > 8 | 5.1 to 15
